Like-named read-outs stand apart in the source and are kept apart here.
Experiments:
human alpha-thrombin [1] = molecular target: T1, human alpha-thrombin (Homo sapiens, UniProt P00734;P00734 328-363;364-622); experiment: gel filtration chromatography
human alpha-thrombin [2] = molecular target: T1, human alpha-thrombin; experiment: gel filtration chromatography; remark: listed apart in the source

Binder | binding result (human alpha-thrombin [1]) | binding result (human alpha-thrombin [2])
TCCGCTGCAGAAAAATCGGGCGTAC (ssDNA, 9 phosphorothioate linkages, between the last 10 nt (T*C*G*G*G*C*G*T*A*C); rest phosphodiester) [ps-po-X on CdTe (same sequence as ps-po)] | no binding | 
GGTTGGTGTGGTTGGAAAAATCGGGCGTAC (structured_DNA, 9 phosphorothioate linkages, between the last 10 nt (T*C*G*G*G*C*G*T*A*C); rest phosphodiester) [ps-po-TBA on CdTe] |  | binds

From PMC2667941
